# Laboratory results as given in patent WO2018039626A1 (dated 2018).
# B1: sdA1 (human single domain antibody targeting CD16A) (VHH)
# VHH: EVQLVESGGGLVQPGGSLRLSCAASGFTFSNYGMSWVRQAPGKGLEWIGSIYYSGGSTNYNPSLKGSLVISRDNSKNTLYLQMNSLAEDTATYYCARESIDYWGQGTLVTVSS
# notes: Human VH single domain (VH3-23 scaffold), not camelid; Purified by Ni-NTA and detected with anti-Flag-HRP, so His and Flag tags were present; also called sdAl; D6
# B2: sdA2 (human single domain antibody targeting CD16A) (VHH)
# VHH: EVQLVESGGGLVQPGGSLRLSCAASGFTFSSYGMSWVRQAPGKGLEWIGEVNHSGGSTNYNPSLKGSFVISRDNSKNTLYLQMNSLAEDTAVYYCARVGSFDFWGQGTLVTVSS
# notes: Human VH single domain; His and Flag tags are implied (Ni-NTA, anti-Flag-HRP); also called E11; El 1
# Biological target: T1, recombinant CD16A ectodomain (human, UniProt P08637 17-208)
# T1 construct: extracellular domain
# T1 sequence (P08637 17-208): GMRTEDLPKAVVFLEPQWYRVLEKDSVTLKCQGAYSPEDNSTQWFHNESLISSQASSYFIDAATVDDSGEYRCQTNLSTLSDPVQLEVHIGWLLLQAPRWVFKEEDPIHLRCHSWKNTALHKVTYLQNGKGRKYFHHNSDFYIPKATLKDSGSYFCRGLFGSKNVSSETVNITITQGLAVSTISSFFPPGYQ
# Assay: ELISA, CD16A ectodomain coated at 50 ng/well, sdA detected with anti-Flag-HRP
binder,measurement,value
B1,EC50,0.1 nM
B2,EC50,0.3 nM
